In the Immune Epitope Database (IEDB) one finds Kd data, which are given here for 18 sequences.

Holding throughout (experiment): IEDB peptide-MHC binding, purified MHC/competitive/radioactivity; filed as Kd, often an IC50 or EC50 that approximates it; ≥ and ≤ were set here for values at or beyond the usual limits of such assays
Assay [1] has as its target HLA-B*35:01.
Assay [2] addresses HLA-A*23:01.
In assay [3] the target is HLA-A*32:01.
Assay [4] addresses HLA-B*15:01.
In assay [5] the target is HLA-A*30:02.
Assay [6] has as its target HLA-A*01:01.
The target of assay [7] is HLA-A*24:02.
Assay [8] concerns the target HLA-A*26:01.
For assay [9], the target named is HLA-A*29:02.
Assay [10] has as its target HLA-B*53:01.
For assay [11], the target named is HLA-B*51:01. The note with it: source organism: Dengue virus 1 Brazil/97-11/1997.
The mark [12] stands for this setting: source organism: Dengue virus 2 Jamaica/1409/1983.
Where [13] appears, read: source organism: Dengue virus 4 Philippines/H241/1956.
[14] abbreviates: source organism: Vaccinia virus WR.
Where [15] appears, read: source organism: SARS coronavirus Tor2.
Where [16] appears, read: source organism: Influenza A virus (A/Ann Arbor/6/1960(H2N2)).
Setting [17] is: source organism: Mammarenavirus guanaritoense.

The Kd is a measure of binding affinity in units of concentration.

A value given as a limit tells only on which side of the number the result lay.

Regarding TAVAPSMTM, the Kd in assay [1] (setting [12]) was 0.0157 µM.

In the case of PFGDSYIVI, the Kd in assay [2] (setting [13]) is 0.723 µM.

In the case of SIISLFYTF, the Kd was found to be 0.00571 µM in [3] (setting [14]) and 0.00137 µM in assay [4] (setting [14]).

For the sequence HYVRITGLY, the Kd is at least 27.6 µM in assay [5] (setting [15]); 7.53 µM in [2] (setting [15]); 18.2 µM in [6] (setting [15]); at least 22.7 µM in assay [7] (setting [15]); 0.149 µM in [8] (setting [15]); 0.111 µM in [9] (setting [15]).

Consider MLFYLEEPI, for which the Kd in assay [3] (setting [14]) is 0.00251 µM; in assay [4] (setting [14]) it was 0.0452 µM.

With AFLPFTLGI, the Kd was 8.04 µM in assay [5] (setting [15]); at least 45.8 µM in assay [2] (setting [15]); at least 78.1 µM in assay [6] (setting [15]); at least 81.8 µM in assay [7] (setting [15]); at least 77.9 µM in [8] (setting [15]); 0.529 µM in [9] (setting [15]).

As for RQMEGEGIF, the Kd in assay [3] (setting [12]) stood at 0.14 µM; in assay [4] (setting [12]), 0.00585 µM.

Regarding EPVPMSTYGW, the Kd in assay [10] (source organism: Dengue virus 3 Martinique/1243/1999) is 0.158 µM.

RQEMASRGLW: the Kd in assay [5] (setting [16]) was 4.35 µM; in [2] (setting [16]) it was 1.73 µM; in [6] (setting [16]), at least 70.4 µM; in assay [7] (setting [16]) it was 9.01 µM; in assay [8] (setting [16]), at least 69.7 µM; in assay [9] (setting [16]) it was 1.88 µM.

With VYDPLQPEL, the equilibrium dissociation constant (Kd) in [5] (setting [15]) was 0.302 µM; in assay [2] (setting [15]), 12.8 µM; in assay [6] (setting [15]), at least 78.1 µM; in assay [7] (setting [15]), at least 44.8 µM; in assay [8] (setting [15]) it was at least 77.9 µM; in [9] (setting [15]), 0.00842 µM.

Consider LPTALAFHL, for which the dissociation constant (Kd) was found to be 1.41 µM in [11] and 0.00216 µM in assay [10] (source organism: Dengue virus 1 Brazil/97-11/1997).

On to EMCEDTVTY, for which the Kd came out at 14.3 µM in assay [5] (setting [13]), 0.681 µM in assay [1] (setting [13]), 0.0283 µM in assay [4] (setting [13]) and 3.9 µM in assay [8] (setting [13]).

As for LYIIKLVFL, the Kd was 13.5 µM in [5] (setting [15]); 0.000179 µM in assay [2] (setting [15]); 2.15 µM in assay [6] (setting [15]); 0.000268 µM in [7] (setting [15]); at least 21 µM in assay [8] (setting [15]); 3.11 µM in assay [9] (setting [15]).

Take LFFFVYENAF: the Kd is at least 51.1 µM in assay [5] (setting [15]); 0.0588 µM in assay [2] (setting [15]); 9.72 µM in assay [6] (setting [15]); 0.185 µM in [7] (setting [15]); 14.5 µM in [8] (setting [15]); 0.107 µM in assay [9] (setting [15]).

For the sequence VFQPSTGNYV, the Kd in assay [5] (setting [17]) is 1.01 µM; in assay [2] (setting [17]) it was 5.66 µM; in assay [6] (setting [17]) it was at least 70.4 µM; in assay [7] (setting [17]) it was 1.53 µM; in [8] (setting [17]), at least 69.7 µM; in assay [9] (setting [17]), at least 31.6 µM.

Consider NKDGFLYVY, for which the Kd in assay [5] (setting [15]) was 2.83 µM; in assay [2] (setting [15]), at least 77.8 µM; in [6] (setting [15]), 13.9 µM; in [7] (setting [15]) it was at least 77.6 µM; in [8] (setting [15]), 14.3 µM; in [9] (setting [15]), 1.13 µM.

With IYNEKVAGF, the Kd was at least 22.7 µM in [5] (setting [15]); 19.7 µM in assay [2] (setting [15]); at least 78.1 µM in assay [6] (setting [15]); at least 26.6 µM in assay [7] (setting [15]); 3.55 µM in [8] (setting [15]); 19.8 µM in assay [9] (setting [15]).

As to PFVVSTGYHF, the Kd in assay [5] (setting [15]) is 11.8 µM; in [2] (setting [15]), 0.00303 µM; in [6] (setting [15]) it was 4.89 µM; in assay [7] (setting [15]) it was 0.0679 µM; in [8] (setting [15]), 0.974 µM; in [9] (setting [15]), 0.257 µM.
